# From patent US20250034271A1 (EUCURE BEIJING BIOPHARMA, published 2025)
# T1: monkey (rhesus macaque) CD40 (rmCD40) on transfected CHO cells (rhesus macaque, UniProt P25942 21-277 (human entry))
# T1 construct: also called monkey CD40
# T1 chain: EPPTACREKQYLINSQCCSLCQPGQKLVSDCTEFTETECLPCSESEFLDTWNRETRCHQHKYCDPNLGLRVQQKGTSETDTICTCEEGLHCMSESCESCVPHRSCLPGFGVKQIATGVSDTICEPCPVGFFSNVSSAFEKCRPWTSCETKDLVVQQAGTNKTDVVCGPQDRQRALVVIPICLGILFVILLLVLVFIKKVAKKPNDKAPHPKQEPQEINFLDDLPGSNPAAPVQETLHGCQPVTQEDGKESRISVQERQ
# T2: mouse CD40 (mCD40) on transfected CHO cells (mouse, UniProt P27512 20-289)
# T2 sequence: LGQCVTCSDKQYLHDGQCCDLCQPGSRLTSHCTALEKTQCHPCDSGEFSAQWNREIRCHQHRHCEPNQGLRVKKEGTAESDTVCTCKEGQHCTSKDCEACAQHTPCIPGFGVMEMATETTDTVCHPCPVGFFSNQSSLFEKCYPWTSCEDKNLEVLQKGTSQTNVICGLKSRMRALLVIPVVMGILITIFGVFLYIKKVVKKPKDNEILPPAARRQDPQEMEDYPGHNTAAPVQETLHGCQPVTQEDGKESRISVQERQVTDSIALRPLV
# B1: mouse anti-hCD40 antibody 07-4H6 (antibody, V domains shown)
# VH: EVKLQESGPSLVKPSQTLSLTCSVTGDSVSSGYWNWIRKFPGNKLEYMGFISYSGSTYYTPSLKSRISITRDTSKNQFYLQLNSVTTEDTATYFCARFRRYDDGVDYWGQGTTLTVSS
# VL: DIQMTQSPSSLSASLGERVSLTCRASHEISGYLSWIQQKPDGTIKRLINAASTLASGVPKRFSGSRSGSEYSLTINSLESEDFADYYCLQYSSYPWTFGGGTKLEIK
# notes: Mouse antibody purified from ascites
# B2: mouse anti-hCD40 antibody 06-6A7 (antibody, V domains shown)
# VH: QVQLQQPGAELVKPGASVKLSCKASGYTFISYYIYWVKQRPGQGLEWIGGINPRNGGTNFNEKFKSKATLTVDKSSSTAYMQLSSLTSEDSAVYYCTRHGNGVYWGQGTTLTVSS
# VL: DVVMTQTPLSLPVSLGDQASISCRSSQSLLHSNGNTYLHWYLQKPGQSPNHLIYQVSNRFSGVPDRFSGSGSGTDFTLKISRVEAEDLGVYFCSQTTHVPWTFGGGTKLEIK
# notes: as for B1
# B3: mouse anti-hCD40 antibody 03-7F10 (antibody, V domains shown)
# VH: EVKLVESGGGLVQPGGSLKLSCATSGFTFSDYYMYWVRQTPEKRLEWVAYISYGGDSTFYPDTVRGRFTISRDNAKNALYLQMSRLKSEDTAVYYCARPAPSAHSYYLDYWGQGTTLTVSS
# VL: DIQMTQTTSSLSASLGDRVTISCRASQDISNYLNWYQQKPDGTVKLLIYYTSRLHSGLPSRFSGSGSGTDYSLTISNLEQEDIATYYCQQGKTLPFTFASGTKLEIK
# notes: as for B1
# Target: T1, monkey (rhesus macaque) CD40 (rmCD40) …
# Experiment: flow cytometry, CHO-rmCD40 cells, antibody 1 µg/ml, anti-mIgG Fc-FITC; x: Anti-mouse-IgG-Fc-FITC, y: SSC-H
# Method: (§1) 25 μl CHO cells were added to each well. 25 μl purified anti-hCD40 antibodies (1 μg/ml) (7F10, 6A7, or 4H6) were added to each well and were incubated at 4° C. for 30 minutes.
# (§2) After being washed with PBS (1200 rmp, 5 min) twice, 50 μl of FITC labeled anti-mouse IgG Fc antibody (anti-mIgG Fc-FITC) was added into each well 1:100 dilution, followed by incubated at 4° C. for 30 minutes, and then PBS wash (1200 rmp, 5 min). The signals for FITC were detected by flow cytometry.
row,% cells in the Anti-mouse-IgG-Fc-FITC positive gate [%],Binder
1,88.5,B1
2,96.4,B2
3,82.6,B3

# Target: T3, chimeric (mouse and human) CD40 (chiCD40) on transfected CHO cells (chimeric (mouse and human))
# T3 construct: also called human-mouse chimeric CD40; chimeric CD40
# Experiment: flow cytometry, CHO-chiCD40 cells, antibody 1 µg/ml, anti-mIgG Fc-FITC; x: Anti-mouse-IgG-Fc-FITC, y: SSC-H
# Method: as §1, §2
row,% cells in the Anti-mouse-IgG-Fc-FITC positive gate [%],Binder
1,87.8,B1
2,94.6,B2
3,82.4,B3

# Target: T2, mouse CD40 (mCD40) on transfected CHO …
# Experiment: flow cytometry, CHO-mCD40 cells, antibody 1 µg/ml, anti-mIgG Fc-FITC; x: Anti-mouse-IgG-Fc-FITC, y: SSC-H
# Method: as §1, §2
row,% cells in the Anti-mouse-IgG-Fc-FITC positive gate [%],Binder
1,1.56,B1
2,1.16,B2
3,0.674,B3

# Target: T4, human CD40 (hCD40) on transiently transfected CHO cells (human, UniProt P25942 21-277)
# T4 construct: also called TNF Receptor Superfamily Member 5; TNFRSF5
# Experiment: flow cytometry, CHO cells with hCD40, antibody titrated then hCD40L-hFc added (blocked ligand: hCD40L-hFc); y: hCD40 Ligand-hFc, x: Anti-mouse-IgG-Fc-PE
# Method: The anti-hCD40 antibodies were collected from mouse ascites fluid and purified by chromatography. 25 μl CHO cells transiently transfected with human CD40 were added to each well in a plate. The purified antibodies were titrated to final concentrations of 50, 5, 0.5, 0.05, and 0.005 μg/ml. The titrated antibodies were added to each well at 25 μl per well at 4° C. and incubated for 30 minutes.
# hCD40 ligand-hFc was expressed by H293T cells. 50 μl of hCD40L-hFc was added to each well (1:500). The cells with hCD40L-hFc and the antibodies were incubated at 4° C. for 15 minutes.
# After being washed with phosphate-buffered saline (PBS) twice, 50 μl of PE labeled anti-mouse IgG Fc antibody (anti-mIgG Fc-PE) at 1:500 dilution and FITC-labeled anti-human IgG Fc antibody (anti-hIgG Fc-FITC) at 1:100 dilution were added into each well, and incubated for 30 minutes at 4° C., followed by PBS wash. The signals for FITC and PE were determined by flow cytometry.
% cells lower left (ligand- / antibody-) at 0.005µg/mL [%],% cells lower left (ligand- / antibody-) at 0.05µg/mL [%],% cells lower left (ligand- / antibody-) at 0.5µg/mL [%],% cells lower left (ligand- / antibody-) at 5µg/mL [%],% cells lower left (ligand- / antibody-) at 50µg/mL [%],% cells lower right (ligand- / antibody+) at 0.005µg/mL [%],% cells lower right (ligand- / antibody+) at 0.05µg/mL [%],% cells lower right (ligand- / antibody+) at 0.5µg/mL [%],% cells lower right (ligand- / antibody+) at 5µg/mL [%],% cells lower right (ligand- / antibody+) at 50µg/mL [%],Binder
35.7,16.8,11.1,11.4,7.76,3.7,26.9,63.6,80.8,83.7,B1
41.2,14.9,3.18,6.37,7.92,4.1,31.6,45.1,67.8,69.7,B2
42.7,9.95,7.02,12.9,12.8,1.99,32.1,47.7,78.8,78.1,B3

# Same assay, conditions: not given
% cells upper left (ligand+ / antibody-) at 0.005µg/mL [%],% cells upper left (ligand+ / antibody-) at 0.05µg/mL [%],% cells upper left (ligand+ / antibody-) at 0.5µg/mL [%],% cells upper left (ligand+ / antibody-) at 5µg/mL [%],% cells upper left (ligand+ / antibody-) at 50µg/mL [%],% cells upper right (ligand+ / antibody+) at 0.005µg/mL [%],% cells upper right (ligand+ / antibody+) at 0.05µg/mL [%],% cells upper right (ligand+ / antibody+) at 0.5µg/mL [%],% cells upper right (ligand+ / antibody+) at 5µg/mL [%],% cells upper right (ligand+ / antibody+) at 50µg/mL [%],Binder
1.95,0,0,0,0.185,58.7,56.4,25.4,7.75,8.32,B1
1.44,0,0,0,0.108,53.2,53.5,51.7,25.9,22.3,B2
4.03,0,0.056,0,0,51.3,57.9,45.2,8.35,9.09,B3

# Target: T2, mouse CD40 (mCD40) on transfected CHO …
# Experiment: flow cytometry, CHO-mCD40 cells, anti-mIgG Fc-FITC
# Method: as §1, §2
row,binding result,Binder
1,no binding,B1
2,no binding,B2
3,no binding,B3
